# Experimental data published in US20060015973, “Environmental stress-tolerant plants” (Independent Admin. Institute, Japan International Research …, published 2006).
# Experiments:
# [1] = molecular target: T1, GST-DREB2A (fragment encoded by cDNA nt 167-666) (Arabidopsis thaliana, UniProt O82132 SEQ:1-166); assay: EMSA; room temperature 20 min; 6% gel 0.25x TBE; details: tags: N-terminal GST (pGEX-4T-1), E. coli JM109; label: 32P
# Protocol: (§1) E. coli in which the fusion protein had been induced was suspended in 13 ml of buffer (10 mM Tris-HCl, 0.1 mM DTT, 0.1 mM phenylmethylsulfonyl fluoride). Then, 1% Triton X-100 and 1 mM EDTA were added thereto. After the cells were disrupted by sonication, the disrupted material was centrifuged at 22,000×g for 20 min. Then, the fusion protein of DREB1A (or DREB2A) and GST was purified by affinity chromatography using glutathione-Sepharose (Pharmacia) as a carrier. The resultant fusion protein was incubated with the DRE-containing 71 bp DNA fragment probe prepared by PCR and radiolabelled with ³²P at room temperature for 20 min. This mixture was electrophoresed using 6% acryl amide gel containing 0.25× Tris-borate-EDTA at 100 V for 2 hr. […] As is clear from this Figure, a band which migrated behind was detected when the fusion protein was incubated with the DRE-containing 71 bp DNA fragment probe (SEQ ID NO: 18). When a DNA fragment containing a varied DRE sequence (SEQ ID NO: 19, 20 or 21) was used, such a band was not detected. On the other hand, when a DNA fragment which was partly varied outside of DRE sequence (SEQ ID NO: 22 or 23) was used as a probe, a behind band was detected. Thus, it was shown that DREB1A or DREB2A protein specifically bound to DRE sequence.
# [2] = molecular target: T2, GST-DREB1A (fragment encoded by cDNA nt 119-547) (Arabidopsis thaliana, UniProt Q9M0L0 SEQ:1-143); assay: EMSA; room temperature 20 min; 6% gel 0.25x TBE; details: tags: N-terminal GST (pGEX-4T-1), E. coli JM109; label: 32P
# Protocol: as §1
# [3] = molecular target: T1, GST-DREB2A (fragment encoded by cDNA nt …); assay: EMSA; no shifted band; details: tags: N-terminal GST (pGEX-4T-1), E. coli JM109; label: 32P
# Protocol: as §1
# [4] = molecular target: T2, GST-DREB1A (fragment encoded by cDNA nt …); assay: EMSA; no shifted band; details: tags: N-terminal GST (pGEX-4T-1), E. coli JM109; label: 32P
# Protocol: as §1
# [5] = molecular target: T1, GST-DREB2A (fragment encoded by cDNA nt …); assay: EMSA; shifted band; details: tags: N-terminal GST (pGEX-4T-1), E. coli JM109; label: 32P
# Protocol: as §1
# [6] = molecular target: T2, GST-DREB1A (fragment encoded by cDNA nt …); assay: EMSA; shifted band; details: tags: N-terminal GST (pGEX-4T-1), E. coli JM109; label: 32P
# Protocol: as §1
# [7] = molecular target: DREB2A delta136-165 (constitutive active form) (Arabidopsis thaliana, UniProt O82132 SEQ:1-335, del136-165); assay: cell_activity; GUS transactivation vs basal, T87 protoplasts; >3x full length
# Protocol: Isolation of Arabidopsis T87 cell protoplasts and polyethylene glycol-mediated DNA transfection were performed as described previously (Abel and Theologis, 1994 Plant J. 5, 421-427). Five-day-old Arabidopsis T87 suspension cultured cells were collected by filtration and washed with water. Five grams of T87 cells were incubated with enzyme solution (0.4M mannitol, 5 mM MES-KOH (pH 5.7), 8 mM CaCl₂, 1% [w/v] Cellulase ONOZUKA R10 (Yakult), 0.5% [w/v] Macerozyme R10 (Yakult)) at room temperature for 2 hours with gentle agitation. Cells were passed through 125 μm nylon mesh, recovered by centrifugation at 450 g for 5 minutes at room temperature and washed twice in 30 ml of […], 70 mM CaCl₂, and 5 mM MES-KOH (pH 5.7). Finally protoplasts were resuspended in MaMg solution (0.4 M mannitol, 15 mM MgCl₂, 5 mM MES-KOH (pH 5.7)) and concentration was adjusted to 3×10⁶ cell/ml. The isolated protoplasts were kept on ice until use. Plasmid DNAs used for protoplast transformation were prepared by using a QINGEN plasmid isolation kit (QIAGEN) and dissolved in 10 mM Tris-HCl (pH 8.0), and 1 mM EDTA at 1 μg/μL. One hundred μL of protoplast suspension was mixed well with 10 μL of effector plasmid, 10 μL of reporter plasmid and 5 μL of 35S:Luciferase internal control plasmid. […]
# T1 sequence (O82132 1-166): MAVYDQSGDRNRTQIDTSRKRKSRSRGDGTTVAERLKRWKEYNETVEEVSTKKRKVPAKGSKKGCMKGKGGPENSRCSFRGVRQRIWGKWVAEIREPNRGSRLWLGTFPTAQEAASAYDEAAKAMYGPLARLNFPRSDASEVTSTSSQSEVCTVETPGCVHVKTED
# T2 sequence (Q9M0L0 1-143): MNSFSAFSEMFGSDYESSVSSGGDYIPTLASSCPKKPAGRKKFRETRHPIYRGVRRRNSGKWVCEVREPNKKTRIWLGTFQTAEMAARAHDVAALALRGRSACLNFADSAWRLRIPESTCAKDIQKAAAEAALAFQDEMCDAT
# Sequence of DREB2A delta136-165 (constitutive active form) (O82132 other isoform, or with tags, fused parts or gaps del136-165 | mutant): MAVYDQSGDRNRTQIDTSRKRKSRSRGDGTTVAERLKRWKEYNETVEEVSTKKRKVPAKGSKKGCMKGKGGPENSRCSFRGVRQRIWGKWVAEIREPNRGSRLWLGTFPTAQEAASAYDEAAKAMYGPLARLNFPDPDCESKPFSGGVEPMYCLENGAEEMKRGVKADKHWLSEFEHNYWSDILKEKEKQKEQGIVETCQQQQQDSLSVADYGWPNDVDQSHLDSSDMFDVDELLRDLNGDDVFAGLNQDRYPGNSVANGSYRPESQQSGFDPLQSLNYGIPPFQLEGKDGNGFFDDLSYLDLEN
binder,measurement,setting,value
rd29A promoter 71 bp DRE probe (wild type) (dsDNA) DNA 1: CAGTTTGAAAGAAAAGGGAAAAAAAGAAAAAATAAATAAAAGATATACTACCGACATGAGTTCCAAAAAGC DNA 2: GCTTTTTGGAACTCATGTCGGTAGTATATCTTTTATTTATTTTTTCTTTTTTTCCCTTTTCTTTCAAACTG,binding result,[1],binds
same,binding result,[2],binds
"71 bp probe, DRE mutant (SEQ 19) (dsDNA) DNA 1: CAGTTTGAAAGAAAAGGGAAAAAAAGAAAAAATAAATAAAAGATATATTTTCGACATGAGTTCCAAAAAGC DNA 2: GCTTTTTGGAACTCATGTCGAAAATATATCTTTTATTTATTTTTTCTTTTTTTCCCTTTTCTTTCAAACTG",binding result,[3],no binding
same,binding result,[4],no binding
"71 bp probe, DRE mutant (SEQ 21) (dsDNA) DNA 1: CAGTTTGAAAGAAAAGGGAAAAAAAGAAAAAATAAATAAAAGATATACTACCGACAAAAGTTCCAAAAAGC DNA 2: GCTTTTTGGAACTTTTGTCGGTAGTATATCTTTTATTTATTTTTTCTTTTTTTCCCTTTTCTTTCAAACTG",binding result,[3],no binding
same,binding result,[4],no binding
"71 bp probe, DRE mutant (SEQ 20) (dsDNA) DNA 1: CAGTTTGAAAGAAAAGGGAAAAAAAGAAAAAATAAATAAAAGATATACTACTTTTATGAGTTCCAAAAAGC DNA 2: GCTTTTTGGAACTCATAAAAGTAGTATATCTTTTATTTATTTTTTCTTTTTTTCCCTTTTCTTTCAAACTG",binding result,[3],no binding
same,binding result,[4],no binding
"71 bp probe, mutated outside DRE (SEQ 22) (dsDNA) DNA 1: CAGTTTGAAAGAAAAGGGAAAAAAAGAAAAAATAAATAAAAGATATACTACCGACATGATCAACAAAAAGC DNA 2: GCTTTTTGTTGATCATGTCGGTAGTATATCTTTTATTTATTTTTTCTTTTTTTCCCTTTTCTTTCAAACTG",binding result,[5],binds
same,binding result,[6],binds
DRE-containing 71 bp rd29A region in GUS reporter (3 tandem copies) (dsDNA) DNA 1: CAGTTTGAAAGAAAAGGGAAAAAAAGAAAAAATAAATAAAAGATATACTACCGACATGAGTTCCAAAAAGC DNA 2: GCTTTTTGGAACTCATGTCGGTAGTATATCTTTTATTTATTTTTTCTTTTTTTCCCTTTTCTTTCAAACTG,activity,[7],> 30 fold
"71 bp probe, mutated outside DRE (SEQ 23) (dsDNA) DNA 1: CAGTTTGAAAGAAAAGGGAAAAAAAGAAAAAATAAATAAAAGATATACTACCGACATGAGTTCGGTTAAGC DNA 2: GCTTAACCGAACTCATGTCGGTAGTATATCTTTTATTTATTTTTTCTTTTTTTCCCTTTTCTTTCAAACTG",binding result,[5],binds
same,binding result,[6],binds
